B1: isolated DH domain of onco-Lbc (AKAP13 residues 1992–2210) (domain or fragment)
chain: VVKRQEVIYELMQTEFHHVRTLKIMSGVYSQGMMADLLFEQQMVEKLFPCLDELISIHSQFFQRILERKKESLVDKSEKNFLIKRIGDVLVNQFSGENAERLKKTYGKFCGQHNQSVNYFKDLYAKDKRFQAFVKKKMSSSVVRRLGIPECILLVTQRITKYPVLFQRILQCTKDNEVEQEDLAQSLSLVKDVIGAVDSKVASYEKKVRLNEIYTKTDS

What was measured:
[1] = biological target: Soluble RhoA (residues 1–181) (UniProt P61586); test: SPR; Biacore 3000; His6-RhoA loaded with GDPβS (RhoA-GDP) held on a nitrilotriacetic acid chip; untagged onco-Lbc or DHαPH injected (0–5 μM); PBS pH 7.4, 1 mM MgCl2; reference lane His6-ubiquitin; constant of onco-Lbc called apparent (two sites)
[2] = biological target: Soluble RhoA (residues 1–181) (UniProt P61586); test: SPR; Biacore 3000; His6-RhoA loaded with GTPγS (RhoA-GTP) held on a nitrilotriacetic acid chip; untagged onco-Lbc or DHαPH injected (0–5 μM); PBS pH 7.4, 1 mM MgCl2; reference lane His6-ubiquitin; constant of onco-Lbc called apparent (two sites)
[3] = biological target: Soluble RhoA (residues 1–181) (UniProt P61586)
[4] = biological target: Soluble RhoA (residues 1–181) (UniProt P61586); remark: listed apart in the source

Chain of UniProt P61586 (P61586 1-181): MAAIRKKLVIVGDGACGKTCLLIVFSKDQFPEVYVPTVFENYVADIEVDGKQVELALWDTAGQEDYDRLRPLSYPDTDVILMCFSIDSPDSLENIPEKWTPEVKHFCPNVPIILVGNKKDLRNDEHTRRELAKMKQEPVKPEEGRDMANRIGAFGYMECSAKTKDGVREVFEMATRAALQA

Molecule	Kd [1] [nM]	Kd [2] [nM]	relative activity (specific exchange activity, DH-PH = 1) (fold of DH-PH) [3]	specific exchange activity (Mant-GDP on RhoA replaced by GMP-PNP) [3] [s⁻¹ M⁻¹]	GEF activity: exchange of GDP to Mant-GTP on RhoA, wild-type onco-Lbc = 100 (% of wild-type onco-Lbc) [4]
onco-Lbc (AKAP13 residues 1922–2346) (domain or fragment)	2880	2210			
AKAP-Lbc construct encompassing residues 2164–2346 (DHαPH) (from UniProt Q12802 2164-2346) (domain or fragment)	> 50000	2930			
onco-Lbc R2289A (domain or fragment)			0.17	680	10.9
onco-Lbc E2001A (domain or fragment)			0.27	1070	8.4
onco-Lbc R2136G (domain or fragment)			0.06	230	7.4
onco-Lbc E2319A (domain or fragment)			1.86	7300	148
onco-Lbc F2299A (domain or fragment)			0.11	440	23.3
B1			3.7	14300	174
